Molecular target: T1, Full-length human E6AP (E6-associated protein) (human), Q05086
T1 chain: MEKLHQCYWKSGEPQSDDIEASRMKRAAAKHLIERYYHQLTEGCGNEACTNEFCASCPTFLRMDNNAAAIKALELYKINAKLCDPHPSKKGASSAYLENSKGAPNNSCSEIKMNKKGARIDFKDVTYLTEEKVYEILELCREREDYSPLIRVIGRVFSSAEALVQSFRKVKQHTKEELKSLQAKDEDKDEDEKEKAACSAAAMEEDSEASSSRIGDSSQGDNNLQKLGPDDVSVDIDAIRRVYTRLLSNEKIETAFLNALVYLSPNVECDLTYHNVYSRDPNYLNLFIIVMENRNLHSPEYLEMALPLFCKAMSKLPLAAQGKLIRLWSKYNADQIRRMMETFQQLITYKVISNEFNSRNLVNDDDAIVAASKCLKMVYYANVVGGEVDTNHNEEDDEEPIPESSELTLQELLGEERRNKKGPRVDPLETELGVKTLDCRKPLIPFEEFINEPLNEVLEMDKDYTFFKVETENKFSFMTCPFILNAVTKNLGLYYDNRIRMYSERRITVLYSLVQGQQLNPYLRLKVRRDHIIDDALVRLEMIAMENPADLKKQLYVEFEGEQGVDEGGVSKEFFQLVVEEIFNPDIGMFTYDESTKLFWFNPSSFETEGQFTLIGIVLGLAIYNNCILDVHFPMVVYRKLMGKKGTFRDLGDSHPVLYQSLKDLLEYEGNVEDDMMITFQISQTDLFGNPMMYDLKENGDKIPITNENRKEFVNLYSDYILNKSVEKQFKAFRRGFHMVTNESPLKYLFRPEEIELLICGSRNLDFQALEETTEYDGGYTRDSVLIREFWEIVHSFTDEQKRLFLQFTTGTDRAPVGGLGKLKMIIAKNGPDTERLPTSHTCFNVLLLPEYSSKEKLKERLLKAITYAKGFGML
Experiment: mass photometry
Conditions: remark: other sources report otherwise

stoichiometry N: 2
B1: Full-length human E6AP (E6-associated protein), Q05086 1-875 (enzyme)
chain: MEKLHQCYWKSGEPQSDDIEASRMKRAAAKHLIERYYHQLTEGCGNEACTNEFCASCPTFLRMDNNAAAIKALELYKINAKLCDPHPSKKGASSAYLENSKGAPNNSCSEIKMNKKGARIDFKDVTYLTEEKVYEILELCREREDYSPLIRVIGRVFSSAEALVQSFRKVKQHTKEELKSLQAKDEDKDEDEKEKAACSAAAMEEDSEASSSRIGDSSQGDNNLQKLGPDDVSVDIDAIRRVYTRLLSNEKIETAFLNALVYLSPNVECDLTYHNVYSRDPNYLNLFIIVMENRNLHSPEYLEMALPLFCKAMSKLPLAAQGKLIRLWSKYNADQIRRMMETFQQLITYKVISNEFNSRNLVNDDDAIVAASKCLKMVYYANVVGGEVDTNHNEEDDEEPIPESSELTLQELLGEERRNKKGPRVDPLETELGVKTLDCRKPLIPFEEFINEPLNEVLEMDKDYTFFKVETENKFSFMTCPFILNAVTKNLGLYYDNRIRMYSERRITVLYSLVQGQQLNPYLRLKVRRDHIIDDALVRLEMIAMENPADLKKQLYVEFEGEQGVDEGGVSKEFFQLVVEEIFNPDIGMFTYDESTKLFWFNPSSFETEGQFTLIGIVLGLAIYNNCILDVHFPMVVYRKLMGKKGTFRDLGDSHPVLYQSLKDLLEYEGNVEDDMMITFQISQTDLFGNPMMYDLKENGDKIPITNENRKEFVNLYSDYILNKSVEKQFKAFRRGFHMVTNESPLKYLFRPEEIELLICGSRNLDFQALEETTEYDGGYTRDSVLIREFWEIVHSFTDEQKRLFLQFTTGTDRAPVGGLGKLKMIIAKNGPDTERLPTSHTCFNVLLLPEYSSKEKLKERLLKAITYAKGFGML

Reference: paper doi:10.1101/2023.11.01.565136
